Test results taken from paper doi:10.1101/2022.05.31.494111.
Like-named read-outs stand apart in the source and are kept apart here.

Assays:
[1] = target: Chlamydomonas reinhardtii RabL2, wild type (Chlamydomonas reinhardtii); assay: ITC
[2] = target: Chlamydomonas reinhardtii RabL2, wild type (Chlamydomonas reinhardtii); assay: ITC; remark: listed apart in the source
[3] = target: CrIFT81_(152-C)/74_(150-C)/27/25_(1-136) complex (Chlamydomonas reinhardtii) (UniProt Q68RJ5); assay: ITC
[4] = target: minimal CrIFT81_(460-533)/CrIFT74_(460-532) complex (Chlamydomonas reinhardtii) (UniProt Q68RJ5)
Sequence of minimal CrIFT81_(460-533)/CrIFT74_(460-532) complex (Chlamydomonas reinhardtii) (Q68RJ5 460-533, chain 1 of 2): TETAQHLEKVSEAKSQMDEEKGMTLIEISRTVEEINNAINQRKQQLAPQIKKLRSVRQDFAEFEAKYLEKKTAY
Sequence of minimal CrIFT81_(460-533)/CrIFT74_(460-532) complex (Chlamydomonas reinhardtii) (Q6RCE1 460-532, chain 2 of 2, further chain): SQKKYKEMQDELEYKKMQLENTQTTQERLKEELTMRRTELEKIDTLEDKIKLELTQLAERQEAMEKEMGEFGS

Sequence of CrIFT81_(152-C)/74_(150-C)/27/25_(1-136) complex (Chlamydomonas reinhardtii) (Q68RJ5 152-683, chain 1 of 4): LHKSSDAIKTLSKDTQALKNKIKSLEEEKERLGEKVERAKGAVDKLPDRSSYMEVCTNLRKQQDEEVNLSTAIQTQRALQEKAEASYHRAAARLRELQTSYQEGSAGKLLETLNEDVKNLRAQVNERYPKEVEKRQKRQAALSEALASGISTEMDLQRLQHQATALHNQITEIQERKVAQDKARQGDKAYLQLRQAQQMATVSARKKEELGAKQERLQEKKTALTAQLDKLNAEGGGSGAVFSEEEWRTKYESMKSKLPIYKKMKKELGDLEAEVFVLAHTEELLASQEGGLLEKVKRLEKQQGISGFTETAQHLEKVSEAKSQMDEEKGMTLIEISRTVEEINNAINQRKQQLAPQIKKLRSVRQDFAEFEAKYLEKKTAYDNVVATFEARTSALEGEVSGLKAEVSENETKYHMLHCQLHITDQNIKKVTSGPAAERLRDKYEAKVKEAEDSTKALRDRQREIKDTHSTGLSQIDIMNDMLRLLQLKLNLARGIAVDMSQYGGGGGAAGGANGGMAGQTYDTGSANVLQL
Sequence of CrIFT81_(152-C)/74_(150-C)/27/25_(1-136) complex (Chlamydomonas reinhardtii) (Q6RCE1 150-641, chain 2 of 4, further chain): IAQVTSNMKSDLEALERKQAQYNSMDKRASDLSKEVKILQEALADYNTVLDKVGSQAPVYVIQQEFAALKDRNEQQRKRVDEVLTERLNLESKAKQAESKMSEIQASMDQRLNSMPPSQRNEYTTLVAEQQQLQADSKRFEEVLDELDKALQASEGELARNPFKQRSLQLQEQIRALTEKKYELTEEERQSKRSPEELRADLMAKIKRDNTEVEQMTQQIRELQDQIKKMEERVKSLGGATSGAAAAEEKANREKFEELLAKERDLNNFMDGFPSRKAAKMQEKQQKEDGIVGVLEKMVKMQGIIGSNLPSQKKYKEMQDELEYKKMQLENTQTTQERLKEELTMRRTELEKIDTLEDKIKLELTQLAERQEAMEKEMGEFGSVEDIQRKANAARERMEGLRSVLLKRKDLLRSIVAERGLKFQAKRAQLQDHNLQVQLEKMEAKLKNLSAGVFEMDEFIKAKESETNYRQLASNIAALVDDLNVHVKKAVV
Sequence of CrIFT81_(152-C)/74_(150-C)/27/25_(1-136) complex (Chlamydomonas reinhardtii) (A8HN58 whole entry, chain 3 of 4, further chain): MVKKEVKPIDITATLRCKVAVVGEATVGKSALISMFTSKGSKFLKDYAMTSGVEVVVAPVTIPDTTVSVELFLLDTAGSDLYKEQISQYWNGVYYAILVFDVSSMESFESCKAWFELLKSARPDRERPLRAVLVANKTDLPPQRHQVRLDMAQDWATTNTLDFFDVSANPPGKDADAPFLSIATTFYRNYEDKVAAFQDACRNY
Sequence of CrIFT81_(152-C)/74_(150-C)/27/25_(1-136) complex (Chlamydomonas reinhardtii) (B8LIX8 1-136, chain 4 of 4, further chain): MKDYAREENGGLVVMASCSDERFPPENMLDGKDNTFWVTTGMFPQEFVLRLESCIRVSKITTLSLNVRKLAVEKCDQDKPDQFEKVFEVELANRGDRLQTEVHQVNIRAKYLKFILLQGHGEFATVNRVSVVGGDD

## Chlamydomonas reinhardtii CEP19 residues 1-208 (domain or fragment)
[1]
  Kd: 12700 nM
[2]
  Kd: 280 nM

## Chlamydomonas reinhardtii RabL2 Q83L (GTP-locked mutant) (natural protein)
[3]
  Kd: 590 nM

## Chlamydomonas reinhardtii RabL2, wild type (natural protein)
[4]
  GTPase rate of RabL2 with IFT81 (460-533)/74 (460-532) against RabL2 alone: 5 fold
